From US20240069033A1, “METHOD FOR SCREENING FOR CANDIDATE MOLECULE CAPABLE OF FORMING COMPLEX IN CONJUNCTION WITH PLURALITY OF TARGET MOLECULES” (Chugai Seiyaku Kabushiki Kaisha, priority 2020, published 2024)
One block for each substance: values may come before it.

Experiments:
biotinylated GFP1-9 [1] = assay: mRNA display pull-down: 0.42 µM Display molecule with 1 µM biotinylated GFP1-9, streptavidin beads, TEV elution, qPCR
biotinylated GFP1-9 [2] = assay: mRNA display pull-down with biotinylated GFP1-9, qPCR; corrected with the display efficiency
[3] = molecular target: anti-ubiquitin antibody (Mouse IgG1 monoclonal antibody; clone name FK2); assay: mRNA display pull-down on anti-ubiquitin antibody (FK2) magnetic beads, qPCR
[4] = molecular target: anti-ubiquitin antibody (Mouse IgG1 monoclonal antibody; clone name FK2); assay: mRNA display pull-down on anti-ubiquitin antibody (FK2) magnetic beads, heat elution, qPCR
[5] = molecular target: anti-ubiquitin antibody (Mouse IgG1 monoclonal antibody; clone name FK2); assay: mRNA display pull-down on anti-ubiquitin antibody (FK2) magnetic beads, qPCR; corrected with the display efficiency
biotinylated GFP1-9 [6] = assay: cell-based or functional assay
[7] = molecular target: anti-ubiquitin antibody (Mouse IgG1 monoclonal antibody; clone name FK2); assay: mRNA display pull-down on anti-ubiquitin antibody (FK2) magnetic beads, qPCR; 1:1 mixture; corrected with the display efficiency
[8] = molecular target: anti-ubiquitin antibody (Mouse IgG1 monoclonal antibody; clone name FK2); assay: mRNA display pull-down on anti-ubiquitin antibody (FK2) magnetic beads, qPCR; 1:1 mixture of the two display molecules
GFP10-Link12-FRB-His×6 = assay: cell-based or functional assay
Chain of GFP10-Link12-FRB-His×6 (chain, as listed by the source limits assumed): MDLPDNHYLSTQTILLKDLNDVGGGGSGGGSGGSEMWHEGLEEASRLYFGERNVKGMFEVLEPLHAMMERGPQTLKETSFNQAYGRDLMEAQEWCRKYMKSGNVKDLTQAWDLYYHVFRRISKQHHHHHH

Chain of GFP10-11 fusion peptide (peptide; modification not given; biotinylated at the Avi tag (co-expression with BirA)) (chain, as listed by the source): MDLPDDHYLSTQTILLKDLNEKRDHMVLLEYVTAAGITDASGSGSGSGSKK
Chain of His×6-FKBP12-Link12-GFP11 (chain): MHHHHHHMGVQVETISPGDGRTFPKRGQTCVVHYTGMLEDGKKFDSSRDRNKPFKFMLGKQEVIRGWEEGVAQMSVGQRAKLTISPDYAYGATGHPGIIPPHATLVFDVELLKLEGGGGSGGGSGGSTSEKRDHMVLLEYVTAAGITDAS
Chain of GFP10-Link12-FRB-His×6 (chain): as the sequence (chain, as listed by the source limits assumed) above

Substance: splitUb(N-C)
fold higher recovery rate than the other controls [3]: > 16 times | Apparent recovery rate (%) [4]: 12.3% | Recovered nucleic acid amount (molecules) [4]: 6.69e+10 molecules | Recovery rate (%) [5]: 16.1%

Substance: splitUb (N) + splitUb (C)
Recovery rate (%) [7]: 0.344% | Apparent recovery rate (%) [8]: 0.194% | Recovered nucleic acid amount (molecules) [8]: 7.16e+09 molecules

Substance: His×6-FKBP12-Link12-GFP11
Recovered nucleic acid amount (molecules) of compound nk06 by pull-down with biotinylated GFP1-9; Condition 3, GFP10-FRB absent (biotinylated GFP1-9 [6]): 8.21e+08 molecules | Recovery rate (%) of compound nk06 by pull-down with biotinylated GFP1-9; Condition 3, GFP10-FRB absent (biotinylated GFP1-9 [6]): 0.202% | Recovered nucleic acid amount (molecules) of compound nk06 (rapamycin-nucleic acid) by pull-down with biotinylated GFP1-9; Condition 1, all three proteins at 1 µM (GFP10-Link12-FRB-His×6): 3.5e+10 molecules | Recovery rate (%) of compound nk06 (rapamycin-nucleic acid) by pull-down with biotinylated GFP1-9; Condition 1, all three proteins at 1 µM (GFP10-Link12-FRB-His×6): 8.62%

Further lines, results first:

Apparent recovery rate (%) (biotinylated GFP1-9 [1]): 13.1% | Recovered nucleic acid amount (molecules) (biotinylated GFP1-9 [1]): 1.31e+11 molecules | Recovery rate (%) (biotinylated GFP1-9 [2]): 23.4%
Substance: GFP10-11 fusion peptide (peptide; modification not given; biotinylated at the Avi tag (co-expression with BirA))

Recovered nucleic acid amount (molecules) of compound nk06 by pull-down with biotinylated GFP1-9; Condition 4, FKBP12-GFP11 absent (biotinylated GFP1-9 [6]): 2.24e+08 molecules | Recovery rate (%) of compound nk06 by pull-down with biotinylated GFP1-9; Condition 4, FKBP12-GFP11 absent (biotinylated GFP1-9 [6]): 0.055%
Substance: GFP10-Link12-FRB-His×6

Apparent recovery rate (%) [4]: 0.571% | Recovered nucleic acid amount (molecules) [4]: 1.16e+10 molecules | Recovery rate (%) [5]: 1.01%
Substance: splitUb(C) (peptide)
